Legend:
[1] = Retention of liposome-encapsulated inulin fluorescein in rat circulation after tail vein injection; format: in vivo; conditions: rats, blood samples 5 minutes and 28 hours, versus control nanoliposomes (FIG. 6)
Experimental: FIG. 6: Effect of Pol-PLI on stability of liposomes in rat blood (in vivo): InFl-containing Liposomes were injected to the tail vein of rats, and the retention of drug in the circulation was monitored for 28 hour, by determination of the drug level in blood samples taken 5 minutes and 28 hours after injection, and expressed as percent of the initial, injected InFl amount.

[2] = Size stability of liposomes with different polymer-conjugated lipids on heated incubation, dynamic light scattering; conditions: DMPC liposomes, 55° C., day 1 vs day 17, versus control nanoliposomes
Experimental: FIG. 3: Size stability of liposomes with different polymer-conjugated lipids (Po-Ls): Liposomes with or without the indicated Po-L were incubated at 55° C. for 17 days, and the change in their size was monitored using dynamic light scattering. […] DMPC=dimyristoyl phosphatidyl-choline; HyPE=HyPE=Hyaluronic acid (HA)-conjugated Phosphatidyl-ethanolamine (PE); Dex (5)-PE=Dextran (MW 5K)-conjugated PE; Dex(40)=Dextran (MW 40K)-conjugated PE; Heta-PE=Hetastarch (hydroxyethylstarch)-conjugated PE; Hem-PE=Hemaccel (Polygeline)-conjugated PE.
The size of the mixed nano-liposomes was determined by dynamic light scattering.

Question: Which “release of encapsulated drug from nanoliposomes, in vivo” value [1] does the source give for “Haemaccel-Glutaryl-phosphatidyl-ethanolamine [Hem-PE]” here?
Answer: The value was “markedly slowed down the drug release”.

Question: What about the “nanoliposome size stability (FIG. 3)” value [2] of the same substance?
Answer: The value was “more stable nanoliposome size than control nanoliposomes”.

Source: patent US11911507B2, “Liposomes comprising polymer-conjugated lipids and related uses” (Yissum Research Development Company of the Hebrew …, priority 2011, dated 2024)
